From paper PMC2063547 (The Journal of Cell Biology, 2006)

T1: calcium and integrin binding protein 1 (CIB1), recombinant (human, UniProt Q99828 1-191)
T1 sequence (looked up): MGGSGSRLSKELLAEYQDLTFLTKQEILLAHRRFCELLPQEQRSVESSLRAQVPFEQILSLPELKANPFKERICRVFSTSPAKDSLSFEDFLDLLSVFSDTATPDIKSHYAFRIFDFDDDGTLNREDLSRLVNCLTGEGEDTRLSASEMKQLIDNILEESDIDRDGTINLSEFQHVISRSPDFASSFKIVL


Key:
[1] = target: full-length human αIIb cytoplasmic tail peptide (human); assay: ELISA
[2] = target: T1, calcium and integrin binding protein 1 …; assay: ELISA

Row | IC50 [1] [nM] | binding result [2] | Molecule
1 | 25 | – | talin head domain (THD), recombinant (domain or fragment)
2 | – | binds | LVLAMWKVGFFKRNRPPLEEDDEEGQ [full-length human αIIb cytoplasmic tail peptide]
